Like-named read-outs stand apart in the source and are kept apart here.
Legend:
[1] = biological target: Native M. bovis BCG Moreau dodecin (M. bovis BCG Moreau (endogenous)); test: SDS-PAGE and western blotting of oligomer bands; 20 ug total proteins of mycobacterial whole cell lysates (lag, logarithmic and stationary phase; 50 mM HEPES/KOH pH 7.5, 10 mM MgCl2, 60 mM NH4Cl, 10% glycerol), 15% SDS-PAGE, blot with anti-dodecin serum
[2] = biological target: Native M. bovis BCG Moreau dodecin (M. bovis BCG Moreau (endogenous)); test: SDS-PAGE and western blotting of oligomer bands; logarithmic phase mycobacterial lysates incubated 30 min at 40 or 80 °C, supernatants on SDS-PAGE, blot with anti-dodecin serum
[3] = biological target: Recombinant M. bovis BCG Moreau dodecin with C-terminal 6-His tag (M. bovis BCG Moreau); test: SDS-PAGE and western blotting of oligomer bands
[4] = biological target: Recombinant M. bovis BCG Moreau dodecin with C-terminal 6-His tag (M. bovis BCG Moreau); test: SDS-PAGE and western blotting of oligomer bands; remark: listed apart in the source
[5] = biological target: Recombinant M. tuberculosis H37Rv dodecin with C-terminal 6-His tag (Mycobacterium tuberculosis H37Rv) (UniProt I6XY36); test: SDS-PAGE and western blotting of oligomer bands
[6] = biological target: Recombinant M. tuberculosis H37Rv dodecin with C-terminal 6-His tag (Mycobacterium tuberculosis H37Rv) (UniProt I6XY36); test: SDS-PAGE and western blotting of oligomer bands; remark: listed apart in the source
[7] = biological target: the molecule itself; test: SDS-PAGE and western blotting of oligomer bands; 20 ug total proteins of mycobacterial whole cell lysates (lag, logarithmic and stationary phase; 50 mM HEPES/KOH pH 7.5, 10 mM MgCl2, 60 mM NH4Cl, 10% glycerol), 15% SDS-PAGE, blot with anti-dodecin serum

Native M. bovis BCG Moreau dodecin (natural protein)
stoichiometry N [1]: 6 | stoichiometry N [2]: 6

Recombinant M. bovis BCG Moreau dodecin with C-terminal 6-His tag (natural protein)
stoichiometry N [3]: 12 | stoichiometry N [4]: 4

Recombinant M. tuberculosis H37Rv dodecin with C-terminal 6-His tag (from UniProt I6XY36 1-70) (natural protein)
stoichiometry N [5]: 4 | stoichiometry N [6]: 12

B1: Native M. tuberculosis H37Rv dodecin (natural protein)
chain: MSNHTYRVIEIVGTSPDGVDAAIQGGLARAAQTMRALDWFEVQSIRGHLVDGAVAHFQVTMKVGFRLEDS
notes: also called M.tb native dodecin; Tb
stoichiometry N [7]: 6

From publication PMC8044443, “M. bovis BCG Moreau N-Terminal Loss Leads to a Less Stable Dodecin With Lower Flavin Binding Capacity” (Frontiers in Cellular and Infection Microbiology, 2021)
